Data from patent publication US20200399369A1 (Sanofi, published 2020).

How the values were obtained:
[1] = molecular target: T1, human CD38 on tumor cell lines NCI-H929 (CD38+/CD28+) and OCI-LY19 (CD38+/CD28-) (human, UniProt P28907 1-300); test: cell-based or functional assay
[2] = molecular target: T1, human CD38 on tumor cell lines NCI-H929 …; test: cell-based or functional assay; remark: listed apart in the source
[3] = molecular target: T2, Human CD28 (human, UniProt P10747 19-152, limits assumed); test: ELISA, antigen-coated plate
T2 construct: also called hCD28
Experimental: (§1) Binding affinities to each target antigen by the CD38/CD28×CD3 T cell engagers were measured by ELISA. Briefly, each antigen was used to coat the 96-well Immuno Plate (Thermo Fisher Scientific) overnight at 4° C. using 200 ng/well in PBS (pH7.4) of each antigen. The coated plate was blocked using 5% skim milk+2% BSA in PBS for one hour at RT, followed by washing with PBS+0.25% Tween 20 three times (Aqua Max 400, Molecular Devices). Serial dilution of antibodies (trispecific and control Abs) were prepared and added onto the ELISA plates (100 μl/well in duplicate), incubated at room temperature (RT) for one hour, followed by washing 5 times with PBS+0.25% Tween 20. […] The reaction was terminated by adding 50 μl 1M H₂SO₄, and OD450 was measured using SpectraMax M5 (Molecular Devices) and analyzed using SoftMax Pro6.3 software (Molecular Devices). The final data was transferred to GraphPad Prism software (GraphPad Software, CA, USA), and plotted. EC50 was calculated using the same software.
(§2) The binding affinities of selected CD38/CD28sup×CD3mid_ENLQ DKTHT IgG4 FALA trispecific antibodies with alternative anti-CD38 binding domains for human CD3, human CD28, human CD38 and cynomolgus monkey CD38 were then determined by ELISA as described above.

[4] = molecular target: T3, human CD38 (human, UniProt P28907 43-300, limits assumed); test: ELISA, antigen-coated plate
T3 construct: also called hCD38; huCD38
Experimental: as §1, §2

[5] = molecular target: T4, cynomolgus monkey CD38 (cynomolgus monkey, UniProt Q5VAN0 44-301, limits assumed); test: ELISA, antigen-coated plate
T4 construct: also called Cyno CD38; cynoCD38
Experimental: as §1, §2

[6] = molecular target: T5, Human CD3 (human); test: ELISA, antigen-coated plate
T5 chain: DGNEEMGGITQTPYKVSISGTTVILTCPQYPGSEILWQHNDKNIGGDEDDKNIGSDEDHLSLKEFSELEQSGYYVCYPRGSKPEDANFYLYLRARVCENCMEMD
Experimental: as §1, §2

[7] = molecular target: T6, Human CD38-His (human, UniProt P28907 43-300, limits assumed); test: SPR (BIACORE 3000), capture format, 1:1 Langmuir model
T6 construct: Bought antigen; also called human CD38 (SPR antigen); not shown: His tag

| Binder | EC50 of in vitro killing of NCI-H929 (CD38+/CD28+) cells, With Dara [1] [nM] | EC50 of in vitro killing of NCI-H929 (CD38+/CD28+) cells, With human IgG1 [1] [nM] | EC50 of in vitro killing of OCI-LY19 (CD38+/CD28-) cells, With Dara [2] [nM] | EC50 of in vitro killing of OCI-LY19 (CD38+/CD28-) cells, With human IgG1 [2] [nM] | EC50 [3] [nM] | EC50 [4] [nM] | EC50 [5] [nM] | EC50 [6] [nM] | Kd [7] [nM] | koff [7] [s⁻¹] | kon [7] [M⁻¹ s⁻¹] |
| --- | --- | --- | --- | --- | --- | --- | --- | --- | --- | --- | --- |
| CD38hhy1195/CD28sup x CD3mid_ENLQ DKTHT IgG4 FALA (other, Trispecific antibody; also called BP # 8) light 1: DIVMTQTPLSLSVTPGQPASISCKSSQSLVHENLQTYLSWYLQKPGQSPQSLIYKVSNRFSGVPDRFSGSGSGTDFTLKISRVEAEDVGVYYCGQGTQYPFTFGSGTKVEIKDKTHTDIQMTQSPSSLSASVGDRVTITCQASQNIYVWLNWYQQKPGKAPKLLIYKASNLHTGVPSRFSGSGSGTDFTLTISSLQPEDIATYYCQQGQTYPYTFGQGTKLEIKDKTHTRTVAAPSVFIFPPSDEQLKSGTASVVCLLNNFYPREAKVQWKVDNALQSGNSQESVTEQDSKDSTYSLSSTLTLSKADYEKHKVYACEVTHQGLSSPVTKSFNRGEC heavy 1: QVQLVQSGAEVVKPGASVKVSCKASGYTFTSYYIHWVRQAPGQGLEWIGSIYPGNVNTNYAQKFQGRATLTVDTSISTAYMELSRLRSDDTAVYYCTRSHYGLDWNFDVWGKGTTVTVSSDKTHTQVQLVESGGGVVQPGRSLRLSCAASGFTFTKAWMHWVRQAPGKQLEWVAQIKDKSNSYATYYADSVKGRFTISRDDSKNTLYLQMNSLRAEDTAVYYCRGVYYALSPFDYWGQGTLVTVSSDKTHTASTKGPSVFPLAPCSRSTSESTAALGCLVKDYFPEPVTVSWNSGALTSGVHTFPAVLQSSGLYSLSSVVTVPSSSLGTKTYTCNVDHKPSNTKVDKRVESKYGPPCPPCPAPEAAGGPSVFLFPPKPKDTLMISRTPEVTCVVVDVSQEDPEVQFNWYVDGVEVHNAKTKPREEQFNSTYRVVSVLTVLHQDWLNGKEYKCKVSNKGLPSSIEKTISKAKGQPREPQVCTLPPSQEEMTKNQVSLSCAVKGFYPSDIAVEWESNGQPENNYKTTPPVLDSDGSFFLVSKLTVDKSRWQEGNVFSCSVMHEALHNHYTQKSLSLSLG heavy 2: QVQLVESGGGVVQPGRSLRLSCAASGFTFSSYGMYWVRQAPGKGLEWVAVIWYDGSNKYYADSVKGRFTISRDNSKNTLYLQMNSLRAEDTAVYHCARDPGLRYFDGGMDVWGQGTTVTVSSASTKGPSVFPLAPCSRSTSESTAALGCLVKDYFPEPVTVSWNSGALTSGVHTFPAVLQSSGLYSLSSVVTVPSSSLGTKTYTCNVDHKPSNTKVDKRVESKYGPPCPPCPAPEAAGGPSVFLFPPKPKDTLMISRTPEVTCVVVDVSQEDPEVQFNWYVDGVEVHNAKTKPREEQFNSTYRVVSVLTVLHQDWLNGKEYKCKVSNKGLPSSIEKTISKAKGQPREPQVYTLPPCQEEMTKNQVSLWCLVKGFYPSDIAVEWESNGQPENNYKTTPPVLDSDGSFFLYSKLTVDKSRWQEGNVFSCSVMHEALHNHYTQKSLSLSLG light 2: DIQLTQSPSFLSASVGDRVTITCRASQGISSYLAWYQQKPGKAPKLLIFAASTLHSGVPSRFSGSGSGTEFTLTISSLQPEDFATYYCQQLNSFPYTFGQGTKLEIKRTVAAPSVFIFPPSDEQLKSGTASVVCLLNNFYPREAKVQWKVDNALQSGNSQESVTEQDSKDSTYSLSSTLTLSKADYEKHKVYACEVTHQGLSSPVTKSFNRGEC | 0.0893 | 0.017 | 0.715 | 0.296 | 0.697 | 103 | 37.7 | 7.63 | 14.2 | 0.018 | 1.27e+06 |
| CD38hhy992/CD28sup x CD3mid_ENLQ DKTHT IgG4 FALA (other, Trispecific antibody; also called BP # 5′) light 1: DIVMTQTPLSLSVTPGQPASISCKSSQSLVHENLQTYLSWYLQKPGQSPQSLIYKVSNRFSGVPDRFSGSGSGTDFTLKISRVEAEDVGVYYCGQGTQYPFTFGSGTKVEIKDKTHTDIQMTQSPSSLSASVGDRVTITCQASQNIYVWLNWYQQKPGKAPKLLIYKASNLHTGVPSRFSGSGSGTDFTLTISSLQPEDIATYYCQQGQTYPYTFGQGTKLEIKDKTHTRTVAAPSVFIFPPSDEQLKSGTASVVCLLNNFYPREAKVQWKVDNALQSGNSQESVTEQDSKDSTYSLSSTLTLSKADYEKHKVYACEVTHQGLSSPVTKSFNRGEC heavy 1: QVQLVQSGAEVVKPGASVKVSCKASGYTFTSYYIHWVRQAPGQGLEWIGSIYPGNVNTNYAQKFQGRATLTVDTSISTAYMELSRLRSDDTAVYYCTRSHYGLDWNFDVWGKGTTVTVSSDKTHTQVQLVESGGGVVQPGRSLRLSCAASGFTFTKAWMHWVRQAPGKQLEWVAQIKDKSNSYATYYADSVKGRFTISRDDSKNTLYLQMNSLRAEDTAVYYCRGVYYALSPFDYWGQGTLVTVSSDKTHTASTKGPSVFPLAPCSRSTSESTAALGCLVKDYFPEPVTVSWNSGALTSGVHTFPAVLQSSGLYSLSSVVTVPSSSLGTKTYTCNVDHKPSNTKVDKRVESKYGPPCPPCPAPEAAGGPSVFLFPPKPKDTLMISRTPEVTCVVVDVSQEDPEVQFNWYVDGVEVHNAKTKPREEQFNSTYRVVSVLTVLHQDWLNGKEYKCKVSNKGLPSSIEKTISKAKGQPREPQVCTLPPSQEEMTKNQVSLSCAVKGFYPSDIAVEWESNGQPENNYKTTPPVLDSDGSFFLVSKLTVDKSRWQEGNVFSCSVMHEALHNHYTQKSLSLSLG heavy 2: QVQLVQSGAEVKKPGASVKVSCKVSGYTLTEFSIHWVRQAPGQGLEWMGGFDPEDGETIYAQKFQGRVIMTEDTSTDTAYMEMNSLRSEDTAIYYCTTGRFFDWFWGQGTLVTVSSASTKGPSVFPLAPCSRSTSESTAALGCLVKDYFPEPVTVSWNSGALTSGVHTFPAVLQSSGLYSLSSVVTVPSSSLGTKTYTCNVDHKPSNTKVDKRVESKYGPPCPPCPAPEAAGGPSVFLFPPKPKDTLMISRTPEVTCVVVDVSQEDPEVQFNWYVDGVEVHNAKTKPREEQFNSTYRVVSVLTVLHQDWLNGKEYKCKVSNKGLPSSIEKTISKAKGQPREPQVYTLPPCQEEMTKNQVSLWCLVKGFYPSDIAVEWESNGQPENNYKTTPPVLDSDGSFFLYSKLTVDKSRWQEGNVFSCSVMHEALHNHYTQKSLSLSLG light 2: EIILTQSPAILSLSPGERATLSCRASQSVISRFLSWYQVKPGLAPRLLIYGASTRATGIPVRFSGSGSGTDFSLTISSLQPEDCAVYYCQQDSNLPITFGQGTRLEIKRTVAAPSVFIFPPSDEQLKSGTASVVCLLNNFYPREAKVQWKVDNALQSGNSQESVTEQDSKDSTYSLSSTLTLSKADYEKHKVYACEVTHQGLSSPVTKSFNRGEC | 0.126 | 0.0134 | 0.133 | 0.0573 | 0.809 | 0.229 | 0.912 | 33.6 | 0.129 | 0.000175 | 1.35e+06 |
| CD38hhy1370/CD28sup x CD3mid_ENLQ DKTHT IgG4 FALA (other, Trispecific antibody; also called BP # 9) light 1: DIVMTQTPLSLSVTPGQPASISCKSSQSLVHENLQTYLSWYLQKPGQSPQSLIYKVSNRFSGVPDRFSGSGSGTDFTLKISRVEAEDVGVYYCGQGTQYPFTFGSGTKVEIKDKTHTDIQMTQSPSSLSASVGDRVTITCQASQNIYVWLNWYQQKPGKAPKLLIYKASNLHTGVPSRFSGSGSGTDFTLTISSLQPEDIATYYCQQGQTYPYTFGQGTKLEIKDKTHTRTVAAPSVFIFPPSDEQLKSGTASVVCLLNNFYPREAKVQWKVDNALQSGNSQESVTEQDSKDSTYSLSSTLTLSKADYEKHKVYACEVTHQGLSSPVTKSFNRGEC heavy 1: QVQLVQSGAEVVKPGASVKVSCKASGYTFTSYYIHWVRQAPGQGLEWIGSIYPGNVNTNYAQKFQGRATLTVDTSISTAYMELSRLRSDDTAVYYCTRSHYGLDWNFDVWGKGTTVTVSSDKTHTQVQLVESGGGVVQPGRSLRLSCAASGFTFTKAWMHWVRQAPGKQLEWVAQIKDKSNSYATYYADSVKGRFTISRDDSKNTLYLQMNSLRAEDTAVYYCRGVYYALSPFDYWGQGTLVTVSSDKTHTASTKGPSVFPLAPCSRSTSESTAALGCLVKDYFPEPVTVSWNSGALTSGVHTFPAVLQSSGLYSLSSVVTVPSSSLGTKTYTCNVDHKPSNTKVDKRVESKYGPPCPPCPAPEAAGGPSVFLFPPKPKDTLMISRTPEVTCVVVDVSQEDPEVQFNWYVDGVEVHNAKTKPREEQFNSTYRVVSVLTVLHQDWLNGKEYKCKVSNKGLPSSIEKTISKAKGQPREPQVCTLPPSQEEMTKNQVSLSCAVKGFYPSDIAVEWESNGQPENNYKTTPPVLDSDGSFFLVSKLTVDKSRWQEGNVFSCSVMHEALHNHYTQKSLSLSLG heavy 2: QVQLVESGGGVVQPGRSLRLSCAASGFTFSSYGMHWVRQAPGKGLEWVAVIWYDGSNKYYADSVKGRFTISGDNSKNTLYLQMNSLRAEDTAVYYCARMFRGAFDYWGQGTLVTVSSASTKGPSVFPLAPCSRSTSESTAALGCLVKDYFPEPVTVSWNSGALTSGVHTFPAVLQSSGLYSLSSVVTVPSSSLGTKTYTCNVDHKPSNTKVDKRVESKYGPPCPPCPAPEAAGGPSVFLFPPKPKDTLMISRTPEVTCVVVDVSQEDPEVQFNWYVDGVEVHNAKTKPREEQFNSTYRVVSVLTVLHQDWLNGKEYKCKVSNKGLPSSIEKTISKAKGQPREPQVYTLPPCQEEMTKNQVSLWCLVKGFYPSDIAVEWESNGQPENNYKTTPPVLDSDGSFFLYSKLTVDKSRWQEGNVFSCSVMHEALHNHYTQKSLSLSLG light 2: AIQMTQSPSSLSASVGDRVTITCRASQGIRNDLGWYQQKPGKAPKLLIYAASSLQSGVPSRFSGSGSGTDFTLTISGLQPEDSATYYCLQDYIYYPTFGQGTKVEIKRTVAAPSVFIFPPSDEQLKSGTASVVCLLNNFYPREAKVQWKVDNALQSGNSQESVTEQDSKDSTYSLSSTLTLSKADYEKHKVYACEVTHQGLSSPVTKSFNRGEC | 0.255 | 0.0096 | 0.21 | 0.0585 | 1.26 | 0.587 | 0.553 | 25 | 0.876 | 0.000329 | 376000 |
